Data on 18 sequences can be found in the DeepSol protein solubility set.

This data set is described as follows: soluble on expression in E. coli; label from the status in PepcDB or PDB records.
As to “MGSDKIHHHHHHVDQKEISDIVQRILQDGPQTQEDGYCLVRAQARREWSLRLNNGRFERVSTARERGIGVQAFTPEGASGFASVDALTVEAGREAMKRAMSLAEHNAKLGAELNRAIYDASPLKTEGPNPAKLEFEHFSLAELQEQVMFLHKRLLNRSPEHSWQTSYRQVEDSWCIGRTDGTLVSYVVPRAVLMHQGTVRVQGRAKSALVQRSGVDAGLLLLEKEDSDLERRGVERGEFAKQVCVAPHLPSGHYPLIIDYGLAKGLAHEAFGHAVESDHMQESVLGEAGKLRKGLQVARPGVHIIDGPLEGDWAYQPFSANGLVRETVEIVKDGVLQAGLGDIFSAHKAGMPVSGAGRAESYGHIPLPRMTNIRLLVDHVLPLAPASDLMAEISQVRQTLRAAGELHDERKHLLLLGYRGGQVNPKTGDFVFQCDGIIDVADPNLTIYQPSIFSGKILSALQAIRVGLGGGCYDAIGTCGKGGQSVPSSGGSHRYLLLDRDEYVTLGGEQ”, the “soluble on expression in E. coli” value was “not soluble”.

As for “MGSDKIHHHHHHVDQVNAYRNSAHLYDLDQRELVTADIPFYLEYAGSFGGGILELGCGTGRIAIPLAEAGHDITALDLSENMLAAFSAKLTNVAAGTKKKLALVQGNMADFSLRKTFDMIIAPFRAFQALTRAEDINGCLACMREHLNDGGIVIINVFRPFGTLDESWCYPETVQWERWDDATGSKVVKKHWGQRIDVENQIIYPGFAYEVMASNGVVERFADNLALKYYYYEQLTTLLQDAGFRIKEEYGWYDKSPIENGRELIFVCTR”, the “soluble on expression in E. coli” value was “not soluble”. In the case of “MGSDKIHHHHHHVENWDEVRTAYQVARLGTVSGAADVLGVHHATVIRHIDAIEARLGVKLFQRHARGYTATEAGLDLLRVAQATDDQFSQLVGRLKGQGDEVSGELVVTSLSSMAPMLAPALAEFQQLHPDLVIRYLTGDRLFRLEYGEAHVALRAGAAPEQPDNVVQPFVAQRLALYASREYVERHGMLKGQDDMVNHRFIASDNENTRAPFERWLRSTIPAENIVFRCSDAVAGHQAIRAGAGIGFVSLWEAASSPDLVMMMDPHDEWSGKIWLVTHVDLHRTNKVQSFVRFLKEHAKSWPQ”, the “soluble on expression in E. coli” value is “not soluble”.

Take “MGSDKIHHHHHHVIALLKAYKFRLYPTKPQQEYFVKTFGCVRFVYNKMLEERIQLYEDSKLNPDAKQKLPTPAKYKPEFPFLKEVDSLSLANAQMDLNQAYQNFFRDQSVGFPKFKSKHNDRASYTTNNLKGSIRIEDRKVKLPKIGFVKLKQHRPFDGVIKSATVSMTKTRKFFISILVDQAEAQWVPAQNKVGIDLGLEHFAILTNDEWVSEKVANPRFLRKSEEKIKKAQRALSRKKIGSKNREKARIILAKKHEKIAHQRQDFLHKLSKRMVDDNQVIVVETLKSKNMMKNHKIAKSIGDVSWYGFVRQLEYKCAFYGRTLIKADQWYASTQICSSCGVKGEKKTIDVREWMCTCGAHHDRDINASINLLLLAD”: the “soluble on expression in E. coli” value is reported as “not soluble”.

Take “MGSDKIHHHHHHVKIAIASDHAAFELKEKVKNYLLGKGIEVEDHGTYSEESVDYPDYAKKVVQSILSNEADFGILLCGTGLGMSIAANRYRGIRAALCLFPDMARLARSHNNANILVLPGRLIGAELAFWIVDTFLSTPFDGGRHERRIRKIDEV”: the “soluble on expression in E. coli” value is listed as “soluble”. In the case of “MGSDKIHHHHHHVLKKALRQHFRQSCTEQDLHRWFDPLDITLADEKRLEVRFPHRFFAEWFSTQVQGRFESELNTFMGEGTTVEYTTGCCPVLSSSPLPPAAVSKKLSAPFGREYTFETFISNKRNFFPVASARELARQEEEIRYNPFVLCGPAGSGKTHLLRAIANELSKTVYKKHIFISTIDDLGTLFSNNGSGDPAQVRQQLSACHYLLLDDLHRLREQPQLQDELTVLFNSFYDRQKQMVFTCPGKLSELDFLETGLRSRLEWGLIVTMKPPDLEILVTFIQRQCKLHKLQLAKEHVFTLAQRFRDFRHLQGVLNRLTAYRDLVNRTLADTDFEQVLSHTEAGAGRPLTADRIIALCAGRFSLPPKDVTGDKRHQKVVLARQVAMYLCRELMGSSYPVLGRTFGGKDHSTAMYAVKKIKKMIDSDKTTRQLVTELKKQCLSGAE” it was “not soluble”; in that of “MGSDKIHHHHHHVLNLGHKLLQYEAQKLISFHTPGHKGKAEFFTDLHFPDQDLTELPGLDMLHSPAGVIAQAQARAAAVYQSDASFYLINGATVGNQGMFMALAGTGKRGKDLQLPKVLVERQSHRSVFSALVLSGCEPEYIPSVVHPEFGLPLGLKSIAEVDLGEFLGVHLTYPGYYGTLPDLAMIAAQRDRQAVQVSILVDQAHGSHYLSPLFPKGALAYGADLVLCSTHKTLSALTQAAMLHVQGSRIPLSALKEALELLQSSSPSYLLMASLERAVEHALESRRWELLHEAVQELHHRVGGSLRILNPQDVGTYGIAGLDWTKIMINTQRLGVAAPRCVEHLRKSYGIDPELWDDKNILFLLGIGNTPEEVEILTKGLLSLASLNKDVVASPEEMVFEIPLPPVRLTPRQAYFARKRKIPLAESVGHIVGESISPYPPGIPWIVMGEEMTPEILELLTRHKGRWQGWEDAGQGVWIIEEV”, “not soluble”. In the case of “MGSDKIHHHHHHVLNNLGQTRYVVPRPHPQLVTTRTLVMQRIDGFNFDDVTGMQDAGIDTEDVIRTGMVAFMEGALIHGIFHGDLHGGNLFVLPDGRTALLDFGITARLDDDRRRAFLRLMMTATTNDLTGQMAALRDLGALPLDTDLQAVIRDLRLDEAPIDPTTLSGEEMVAEVQRVVKALLSYGARLPKELMLYVKNMVFLDGAIARLAPDLDLLAEVANISMMFASRHGERLMTEIGIDAANMQVNLDSVKAGFGVDLSTDRLTYRELQERRELIQKRMRSHVERTRRSAN” it was “not soluble”. In the case of “MGSDKIHHHHHHVMARIHNRDWCLACTSSLKELPRHVYFRAYSLKGGTCVQGHEHVWWQFLFARNGLMQVQAGATTLTLPPDYGVWIPPGCVHTLWIGEEVELESLYIEPTAVAIQDQEPRVVMVDEFVRAFIHHGCTSIPVKYDEDGADGRKVKVLLDSLQSLPDAPFNLPFPTEPRLLEVCLTIQSAPHLAHTLDESAGLARMSSRTFTRHFLRATGLPYHTWRQRMRLLGSLEMLRSDITVTEVALTIGYSTPSAFTHAFKQLFGKSPSRFTRPEPK” it was “not soluble”. Consider “MGSDKIHHHHHHVQDKNFDKLAQKFAKNIYGTPKGDIRAAVLWRDLAPALAKLGDRKLRVLDAGGGFGYFSQKLARLGHEVVLCDISAEMLAQAQEQIDASPEPLAIQLIHAPIQALSVEQHGYFDIILCHAVVEWLTDAKPTMAGLLTMLKPAGLFSLMFYNKEAMRFHALVSGNFDYVAADLKVKKKVQLTPTHPLYIQEVKEWFSDWQMSLISQSGVRVIHDYLKKSQPVDFDYQKLLQMELEYSQREPYISLGRYVHFLGQSPAV”, for which the “soluble on expression in E. coli” value was “not soluble”. In the case of “MGSDKIHHHHHHVSLIQEYKKQQNWRDWERYLESIPYSGEDTVIDLGCSVGDVSQLFSLRVKNVIGIDVNQDFIDICESQKSVNQTFICSDFLSLDSQLIESTNGIWSSFSLSYLRNPLDFLIYLNASMKQGGWIALLDISCFISGNLAKKSQYYEKVLKFELESYKSGIYDFDFGSKMLSMLQNAGFDIVYLDNDVTDPELNFTGAASAEIIHGWAARLNRMNRLKDEIGAEYPDFCNELLANLSSDTHEKRQNVRFIVARKPITSVNKATDSCAGVHSQ” it was “not soluble”. In the case of “MGSDKIHHHHHHVSNGAATRVRRSREKILGAAESVFLQHGFLGTNMDVIADTAGVSKQTVYAHFKSKEALFIDVVEAMTGGAAEEIGEDIEDVFGDRKAEDYLLEVAIDQLTVVLTPRLMQLRRMVIGEVERFPELGRSLYVNGPIRSITRLTRACAHYTRIGELITPDPQAAATQFNWIVMGAPTNAAMLLGDAGIPTSAQLQAHATEAVRIFLCAYGAKQMHPR” it was “not soluble”; in that of “MGSDKIHHHHHHVSQPTSSLVGKSRASIYRDLVLSAQGVRFGKTAGKDVDVIKYLFALLILLAFSAKGYHPKEAHEPLTTLAVDAMAQCGINLSESTRLQLMQGNLAMDEGAGKLPKELMNTSFAKAVFPMTKRIHNWHFYHPDKTADAQRLAGKTDMSMARLWQAAQAGLEQAPAEHKAYYLGAIIHLIQDVTVPAHAVPVYHGPKIIAWQREFAPLVNYLGFGFRGIFVIHDPVDDWPVNSTGAEQPIAAIPCPELHAASSNLSANFDALRTRVARQTLTALDNPIPGCAAPWRLFWREDLGHRYFAGYTQGIKPFGRANSLSGEGISIDGRPCEPDYQGFVETRHRAAIEATMAALQLSQLGVVSPVPTEAQ”, “not soluble”; in that of “MGSDKIHHHHHHVTEPIRLYYWPAPNFGDALSHLVVEHVSGRPVVNARPKQAELFALGSLMHVISRHWTERVRGEGPLLWGTGLLNPFYRKEFLENVRVRLLRGPISAAFLRLKMTEFGDPGLLADEAVGPVEDRHDRVAIVPHHSQMDDPRFVEMVEADPALHLIDVRLDPVTVCREIAASAHVFSASLHGLIVADAYGVANTWMDPEAQGRLKYHDYAAAIGRDMIAPVEIRDVPKAARTARDRPFPYADGIARCRESLHRHFPAELRAPLRATAS”, “not soluble”. In the case of “MGSDKIHHHHHHVTLDQLLMFRTVAEAGSLKAASNKLHKTQPAISQSIKQLESQLDLILFNREGYRLAITEQGRKLLQHTLRVLNEAQEMKQVAKHLAKGNEASITLAFEASFNLARILPILELTQNEFPYTQIILKQEFLTGALEALNQDKAEIIISAGGIEPIRSSHLELAYLFSGSLLDVAAPRLLSRYPNLSHVRELVNEYQIVIQDTGTGTANIEFGVQAGQRRWYVNDFYTKKMLIQSGMGWGKLPHYMIEDSLKQGALIALDLRERQNNIQLDYYVMRKPHSPLGPVAQALWQKLIAFSLS” it was “not soluble”. On to “MGSDKIHHHHHHWIAFAGNMNTTIDNESDELKAIDYKDLEVKEKLGEGASGEVYRAMYGGSDVALKLFRGAATSDGLPEDEIKVMQRLGPDENSVSILGSVVGAPEGQLAALLPLVPPSFTILGNPPTFDSCTRDTYPKDKTFSLRTAIEILEAIARVCAHLHSRGLSHGDLYAHNILVQIGVDGEPTRTKLSDYGAASFSSVLKPHQVALLERIEVRAFGALAEELMDRLEEADAEGVAHRLSSVIVKSMRADVASRPSFSEIHQEMVAFLKEV”, for which the “soluble on expression in E. coli” value is “not soluble”.

With “MGSKVAGKKKTQNDNKLDNENGSQQRENINTKTLLKGNLKISNYKYLEVIQLEHAVTKLVESYNKIIELSPNLVAYNEAVNNQDRVPVQILPSLSRYQLKLAAELKTLHDLKKDAILTEITDYENEFDTEQKQPILQEISKADMEKLEKLEQVKREKREKIDVNVYENLNEKEDEEEDEGEDSYDPTKAGDIVKATKWPPKLPEIQDLAIRARVFIHKSTIKDKVYLSGSEMINAHNERLEFLGDSILNSVMTLIIYNKFPDYSEGQLSTLRMNLVSNEQIKQWSIMYNFHEKLKTNFDLKDENSNFQNGKLKLYADVFEAYIGGLMEDDPRNNLPKIRKWLRKLAKPVIEEATRNQVALEKTDKLDMNAKRQLYSLIGYASLRLHYVTVKKPTAVDPNSIVECRVGDGTVLGTGVGRNIKIAGIRAAENALRDKKMLDFYAKQRAAIPRSESVLKDPSQKNKKRKFSDTS”, the “soluble on expression in E. coli” value is “soluble”. In the case of “MGSRTGSREEHSLQFLNLTKMTTTTASNLPWVEKYRPSKLDELVAHEQIVKTLTKFIENRTLPHLLFYGPPGTGKTTTVLAAARQMYSPTKMASMVLELNASDERGIDVVRNTIVNFAQTKGLQAFSTSSNTGTVPFKLVILDEADAMTKDAQNALRRLDKTDYEQNIIIHNVNIYFRVIEKYTDNVRFCIICNYLASIVPAIQSRCTRFRFAPLDQKLIVPRLEYIVETEQLKMTPDGKDALLIVSKGDMRTVINTLQSTAMSFDTVSENTVYQCIGQPTPKEMKEVVKTLLNDPSKKCMNTIQTKLFENGYALQDVITHLHDFVFTLDIPDEAMSAIITGLGEVEENLSTGCSNETQLAAVVAAFFEAKRLCVKEMKNLEIEDMEF” it was “not soluble”.
